This passage reports Kd results from US20140302123A1 (INSTITUT PASTEUR, published 2014).

The target in test [1] is T1, Cyto13-vir (rabies virus (CVS-NIV RABV strain)). The test is described as follows: NMR titration (rounded value in the text).
Test [2] concerns the target T1, Cyto13-vir. As to the kind of experiment: NMR titration, 15N-labeled PTPN4-PDZ with unlabeled peptide.
A further test addresses DARL-13 (rabies virus (vampire bat RABV strain)). The description is as above.

B1: PTPN4-PDZ (residues G499-N604) (other)
chain: GSPEKPTPNGGIPHDNLVLIRMKPDENGRFGFNVKGGYDQKMPVIVSRVAPGTPADLCVPRLNEGDQVVLINGRDIAEHTHDQVVLFIKASCERHSGELMLLVRPN
notes: range 500-604; also called PDZ of PTPN4; PTPN4 PDZ domain
By Kd is commonly meant the equilibrium constant for the complex coming apart. The low end stands for a tighter complex, the high end for a looser complex. In the case of B1, the results for the Kd with Cyto13-vir [1], with Cyto13-vir [2] and with DARL-13 were 560 µM, 568 µM and 1280 µM, respectively.
